In the supplement of paper PMC12764529:
± gives the half width of the 95% confidence interval.

How the values were obtained:
[1] = folding stability dG unfold from chymotrypsin proteolysis; higher = more stable
Method: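 Folding stability of de novo designed mini-proteins (<80 aa, no Cys; designed by TrROS, TrMRF, ProteinMPNN and the joint model) was measured by cDNA display proteolysis with trypsin and chymotrypsin. Each protease was used at 11 concentrations in a threefold dilution series plus a no-protease condition. K50 was inferred by Bayesian fitting of sequencing counts, and dG unfold was derived against a sequence-predicted unfolded-state K50 (Tsuboyama et al. method). Sequences shown include variable-length N-terminal GS-type padding (SAGGSAGG...) inside a display construct carrying a PA tag. Rows were kept only if the AF2 dimer inter-PAE was >15, to exclude likely homo-oligomers.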

[2] = folding stability dG unfold (combined trypsin and chymotrypsin); higher = more stable
Method in brief: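 Unfolding free energy was derived, per protease or combined, by relating Bayesian-fitted K50 values from sequencing counts to a sequence-predicted unfolded-state K50 and a shared folded-state K50. The underlying digests exposed cysteine-free mini-proteins under 80 residues, in a PA-tagged cDNA display construct, to trypsin and chymotrypsin at 11 threefold-diluted concentrations and to a no-protease condition. A filter kept only designs with AlphaFold2 dimer inter-PAE above 15.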

| Sequence | folding stability dG unfold [1] [kcal/mol] | folding stability dG unfold [2] [kcal/mol] |
| --- | --- | --- |
| SAGGSAGGSAGPMWRIEVENPNGRTPEIWIPPNMDTPEELVDELKKHFPGLKKVKIEPYPSAGGSAGGSAGG [r11_311_TrROS] | 0.184 ± 0.12 | -0.391 ± 0.27 |
| SAGGSAGGSAGPPGEPVRIKLKFPNGNPIEIPGKLDDAEEIAEELQSEGFPFSKVEVEKWSAGGSAGGSAGG [r11_946_TrROS] | -0.257 ± 0.49 | -0.603 ± 0.51 |
| SAGGSAGGSAGPWVPIAPGPNGMWIWAEPDPDKFTIRMFPMSPDGKIPDVQEHEIPPEDFSAGGSAGGSAGG [r11_88_TrROS] | 0.156 ± 0.22 | -0.216 ± 0.17 |
| SAGGSAGGSAGSMTVTSKYTLPGSSDVPVEVEVYSEAPVAVLTKPGAKTVLPLEALKALLSAGGSAGGSAGG [r11_370_JUSTAS] | 0.346 ± 0.14 | -0.0987 ± 0.084 |
| SAGGSAGGSAGSNVVYLGEEVITEVDPYSDKPYTVKVKVYLEPTPEGEKIIEEVLEKELLSAGGSAGGSAGG [r11_113_JUSTAS] | -0.719 ± 0.29 | -0.94 ± 0.33 |
| SAGGSAGGSAGYPPVPPAVVQAVVDELPRLGYTPKAVVVGEGPDLPFVLVVADDKVLLVRGSAGGSAGGSAG [r3_395_TrMRF] | 0.524 ± 0.096 | -0.379 ± 0.14 |
| SAGGSAGGSAIPPDAPVEVPVRVRVGGEEFDVTATLTARPDGSVGVDVDVDVPADEAEIEPASAGGSAGGSA [r18_428_TrMRF] | 0.118 ± 0.32 | < -1 |
| SAGGSAGGSAKAKVLEVEEKPVGGVNRFKIEVPLENGEPQKFYVLVEVPEDGDEKFAVKPGSAGGSAGGSAG [r3_94_TrMRF] | 0.1 ± 0.16 | -0.319 ± 0.18 |
| SAGGSAGGSAKKLKIPNPDGKTYEMKVEDVDPENNNVMIRNPGNGEPFHFKKSDAKRIAEELSAGGSAGGSA [r18_161_TrROS] | -0.626 ± 0.44 | < -1 |
| SAGGSAGGSAMIETSVSLDPKNGLRKVTQNVTPEEYLKLTGGPPIPKENKTTVTLTKTLPVPSAGGSAGGSA [r18_327_JUSTAS] | -0.265 ± 0.087 | -0.726 ± 0.16 |
| SAGGSAGGSAMKLTKEYVFTKTITLKNGKTKTESEVLTEEVPPIPLEELIKRLGLPPEELISAGGSAGGSAG [r3_338_JUSTAS] | -0.126 ± 0.44 | -0.186 ± 0.32 |
| SAGGSAGGSAMPIPKVLVLKDEGTLEEAREAALKYVKEDEKVIVKIGDKEIVIPAEELKKKSAGGSAGGSAG [r3_50_TrMRF] | -0.237 ± 0.5 | < -1 |
| SAGGSAGGSAMTVYVPIEEVGPDENGEYDDELIRERVREEYPDEPVEEVLVEGPEEAERVARSAGGSAGGSA [r18_72_JUSTAS] | -0.134 ± 0.061 | -0.384 ± 0.23 |
| SAGGSAGGSAMVTVTILSEDTTDSPRTYTVLFPAEGKALPLPFPADASEAEVRARALELLASAGGSAGGSAG [r3_142_JUSTAS] | 0.673 ± 0.15 | < -1 |
| SAGGSAGGSANQVKVEIEIPRMKMERDPDGGYQMEMRPVKIEIEAPMPEEQADDIAKDLIKSAGGSAGGSAG [r3_487_TrROS] | 0.579 ± 0.045 | 0.0639 ± 0.16 |
| SAGGSAGGSAPEPVVAKLVEVVTLPDGTPVLLFVVDHPDGPPELRLSTDALIEGDDLVDPSSAGGSAGGSAG [r3_261_TrMRF] | 0.404 ± 0.078 | -0.0131 ± 0.2 |
| SAGGSAGGSAREELVRRAAEEGLPGVRVLAIPPGNREVPAIVEGDKVYSYDLPDDAEVVVASAGGSAGGSAG [r3_244_TrMRF] | 0.408 ± 0.08 | -0.0679 ± 0.086 |
| SAGGSAGGSARIRFPNGYEIEVPRKRNPDGNLEITIESRNPDNPEHREMAKKIARDIADELSAGGSAGGSAG [r3_163_TrROS] | -0.0805 ± 0.06 | -0.526 ± 0.17 |
| SAGGSAGGSARTVPPDLLVRVETPDEERIVPVSELDAFFARHPDVPWRDITVVDPATGAARSAGGSAGGSAG [r3_134_JUSTAS] | 0.539 ± 0.11 | -0.675 ± 0.37 |
| SAGGSAGGSASEEEKPPKIKRVTINIPEEELRERFPGNPEWAENIAREAAKEGFDEVEIDINSAGGSAGGSA [r18_441_TrROS] | 0.942 ± 0.12 | 0.521 ± 0.17 |
